# Results taken from PMC2883168.
# Target: human FGFR1-IIIb (human)
# Assay: SPR
# Chain of human FGFR1-IIIb (human) (P11362 22-822): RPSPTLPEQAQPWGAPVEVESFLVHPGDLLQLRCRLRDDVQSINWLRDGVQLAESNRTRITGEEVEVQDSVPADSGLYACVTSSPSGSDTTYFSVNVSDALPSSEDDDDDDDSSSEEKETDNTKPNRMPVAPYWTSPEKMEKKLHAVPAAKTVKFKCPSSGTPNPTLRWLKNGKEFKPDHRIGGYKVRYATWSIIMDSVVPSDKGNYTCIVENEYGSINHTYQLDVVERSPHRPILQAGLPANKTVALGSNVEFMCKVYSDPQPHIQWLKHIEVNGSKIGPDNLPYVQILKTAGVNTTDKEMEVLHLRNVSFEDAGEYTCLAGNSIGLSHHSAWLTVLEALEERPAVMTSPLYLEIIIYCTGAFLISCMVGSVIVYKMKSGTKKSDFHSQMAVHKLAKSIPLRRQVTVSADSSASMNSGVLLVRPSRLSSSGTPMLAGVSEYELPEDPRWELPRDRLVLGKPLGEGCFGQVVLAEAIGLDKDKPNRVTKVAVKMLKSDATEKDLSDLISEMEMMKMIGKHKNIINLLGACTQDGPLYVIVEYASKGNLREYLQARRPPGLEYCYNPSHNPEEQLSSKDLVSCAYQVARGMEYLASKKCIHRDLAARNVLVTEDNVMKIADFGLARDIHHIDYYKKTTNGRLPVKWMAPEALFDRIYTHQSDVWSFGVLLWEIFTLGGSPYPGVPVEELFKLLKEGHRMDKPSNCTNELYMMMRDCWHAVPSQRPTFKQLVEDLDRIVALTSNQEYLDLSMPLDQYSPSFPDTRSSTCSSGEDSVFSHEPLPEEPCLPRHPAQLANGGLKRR
substance,measurement,value
"native, recombinant FGF-2 (from UniProt P09038 1-288) (ligand)",Kd,952 nM
